# B1: KB004: afucosylated anti-EphA3 mAb supplied by Kalobios; targets EphA3+ cells via antibody-dependent cell-mediated cytotoxicity (ADCC) (antibody, chains of the INN, looked up, V domains shown)
# VH: QVQLVQSGAEVKKPGASVKVSCKASGYTFTGYWMNWVRQAPGQGLEWMGDIYPGSGNTNYDEKFQGRVTMTRDTSISTAYMELSRLRSDDTAVYYCARGGYYEDFDSWGQGTTVTVSS
# VL: DIQMTQSPSFLSASVGDRVTITCRASQGIISYLAWYQQKPEKAPKRLIYAASSLQSGVPSRFSGSGSGTEFTLTISSLQPEDFATYYCGQYANYPYTFGQGTKLEIK
# Tested on: CCR10+ cells
# Experiment: Humanized NSG-GFP mice: KB004 / KB243 treatment (GFP IHC, flow cytometry)
# Type: in vivo, human IPF cells in NSG-GFP mice
# Conditions: 5 mg/kg i.p. twice a week for 5 weeks, day 35
# Protocol: NSG-GFP mice. (A) IPF cells were injected intravenously into NSG-GFP mice, and 2 hours later groups of mice received either 5 mg/kg of KB004 (an afucosylated anti-EphA3 mAb) or KB243 (an isotype control) via intraperitoneal injection. Both groups of mice were injected twice a week with the antibodies for 5 weeks after which lungs and spleen were collected for histological and/or flow cytometric analysis. (B-C) Depicted are representative images of GFP-stained NSG mouse lung (red indicates the presence of transgenic GFP mouse cells) at day 35 after IPF lung injection in both the KB243 (B) and KB004 (C) treatment groups. (D) Flow cytometric dot plots depicting GFP^− staining for human-CD45, CCR10 and/or EpCAM proteins. Representative dot plots for (from left to right) GFP^− cells expressing CD45, CD45, and CCR10 or CCR10 alone in humanized NSG-GFP mice treated either with KB243 (top) or KB004 (bottom) antibodies are shown. (E-F) The average number of GFP^− CD45^+ CCR10^+ (E) and GFP^− Lin^− CCR10^+ (F) cells in non-humanized and humanized NSG mice treated with either KB243 or KB004. Data shown are mean±sem n=4-5/group. *p≤0.05
# Six to eight-week old, female, pathogen free NOD Cg-Prkdc^SCID IL2rg^Tm1wil Szi (NSG) or NOD.Cg-Prkdc^SCID IL2rg^tm1Wil Tg(CAG-EGFP) 10sb/SzJ (NSG-GFP) were purchased from Jackson Laboratories and housed in Cedars-Sinai Medical Center's high isolation animal rooms. […] All NSG groups were monitored daily and mice were sacrificed if there is evidence for morbidity such as weight loss of more than 20%, loss of fur, paralysis and/or lack of responsiveness when handled.
# Murine lung cellular suspensions were generated using a mouse lung dissociation kit, C-tubes, and a GentleMacs dissociator (Miltenyi Biotech). […] Unstained, isotype controls, fluorescent minus one controls and staining in non-humanized murine lung and spleen suspensions were utilized to gate out any non-specific antibody binding and background fluorescence. […]
molecule,measurement,setting,value
B1,"GFP cells in lung by IHC, KB004 compared with KB243",,fewer GFP cells
same,number of CD45+ CCR10+ cells compared with KB243 group,flow cytometry,significantly reduced
same,number of Lin- CCR10+ cells compared with KB243 group,flow cytometry,significantly reduced
